Patent publication US20200171163A1 (Daiichi Sankyo, published 2020)

T1: mouse CDH6 (on cells) (mouse, UniProt P97326 54-790)
T1 construct: also called mCDH6
T1 sequence: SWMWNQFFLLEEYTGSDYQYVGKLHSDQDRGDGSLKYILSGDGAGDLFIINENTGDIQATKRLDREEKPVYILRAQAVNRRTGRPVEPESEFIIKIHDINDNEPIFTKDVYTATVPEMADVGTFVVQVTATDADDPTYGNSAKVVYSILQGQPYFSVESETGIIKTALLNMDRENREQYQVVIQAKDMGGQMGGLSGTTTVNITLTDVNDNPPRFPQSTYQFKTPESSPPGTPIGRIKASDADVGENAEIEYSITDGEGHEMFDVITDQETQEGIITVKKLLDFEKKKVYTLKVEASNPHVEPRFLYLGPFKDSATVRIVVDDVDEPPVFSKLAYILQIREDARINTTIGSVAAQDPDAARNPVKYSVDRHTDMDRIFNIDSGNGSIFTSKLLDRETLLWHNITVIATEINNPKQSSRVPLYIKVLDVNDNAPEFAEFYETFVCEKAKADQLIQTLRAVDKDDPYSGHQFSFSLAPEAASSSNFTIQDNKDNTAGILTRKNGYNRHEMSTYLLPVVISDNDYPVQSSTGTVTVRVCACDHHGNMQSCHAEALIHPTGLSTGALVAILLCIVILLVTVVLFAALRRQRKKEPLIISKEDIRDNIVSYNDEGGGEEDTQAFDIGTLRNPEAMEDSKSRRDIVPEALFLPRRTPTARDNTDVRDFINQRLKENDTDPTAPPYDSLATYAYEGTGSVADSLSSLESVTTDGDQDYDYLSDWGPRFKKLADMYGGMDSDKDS

T2: EC3 deletion mutant of human CDH6 (human, UniProt P55285 54-790)
T2 construct: In p3×FLAG-CMV-9; also called EC3-deleted hCDH6
T2 sequence: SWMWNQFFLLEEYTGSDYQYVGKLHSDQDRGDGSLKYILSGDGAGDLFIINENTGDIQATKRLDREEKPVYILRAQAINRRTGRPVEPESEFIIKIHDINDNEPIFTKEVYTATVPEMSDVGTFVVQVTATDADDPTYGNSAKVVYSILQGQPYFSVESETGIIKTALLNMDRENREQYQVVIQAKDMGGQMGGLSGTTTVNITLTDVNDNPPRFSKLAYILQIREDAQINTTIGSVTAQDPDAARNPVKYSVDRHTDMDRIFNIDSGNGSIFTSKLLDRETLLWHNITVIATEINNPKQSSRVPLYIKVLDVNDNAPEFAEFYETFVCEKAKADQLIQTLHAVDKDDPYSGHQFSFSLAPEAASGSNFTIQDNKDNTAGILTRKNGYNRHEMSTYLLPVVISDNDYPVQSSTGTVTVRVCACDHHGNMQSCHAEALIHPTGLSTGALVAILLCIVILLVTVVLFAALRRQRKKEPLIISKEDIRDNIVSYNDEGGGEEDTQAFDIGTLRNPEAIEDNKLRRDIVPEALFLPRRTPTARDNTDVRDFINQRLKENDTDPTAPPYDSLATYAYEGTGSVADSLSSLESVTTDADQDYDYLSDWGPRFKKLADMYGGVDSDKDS


Key:
mouse CDH6 (on cells) = molecular target: T1, mouse CDH6 (on cells); experiment: flow cytometry, MFI vs antibody concentration; 293α cells transiently transfected with mCDH6; PE anti-human IgG Fc
Description: The cells were cultured overnight under conditions of 37° C. and 5% CO₂, and thereafter, a cell suspension was prepared. […] Thereafter, the cells were suspended by the addition of each of the 4 humanized hG019 antibodies (clone Nos: H01L02, H02L02, H02L03 and H04L02), which had been prepared in Example 5)-5-3, or human IgG1 control (Calbiochem). The cells were left standing at 4° C. for 1 hour. The cells were washed twice with PBS supplemented with 5% FBS, and then suspended by the addition of anti-human IgG, Fc(gamma) PE goat F(ab′) (Jackson ImmunoResearch Laboratories, Inc.) that had been 500-fold diluted with PBS supplemented with 5% FBS. The cells were left standing at 4° C. for 1 hour. The cells were washed twice with PBS supplemented with 5% FBS, followed by detection using a flow cytometer (Canto II; BD Biosciences). The data was analyzed using FlowJo (Tree Star, Inc.). In FIGS. 6-1 and 6-2, the abscissa depicts antibody concentration, and the ordinate depicts the amount of the antibody bound based on mean fluorescence intensity. As shown in FIGS. 6-1 and 6-2, the human IgG1 control as a negative control binds to none of the CDH6-transfected cells. The 4 humanized hG019 antibodies (clone Nos: H01L02, H02L02, H02L03 and H04L02) bind to human CDH6 and cynomolgus monkey CDH6, but bind to neither mouse nor rat CDH6. None of the antibodies bind to the cells transfected with the empty vector pcDNA3.1 as a negative control.

[1] = molecular target: T2, EC3 deletion mutant of human CDH6; experiment: flow cytometry; 293α cells transfected with EC3-deleted hCDH6 (open) vs untransfected control cells (shaded); APC anti-human IgG
Description: The cells were cultured overnight under conditions of 37° C. and 5% CO₂, and thereafter, a cell suspension was prepared. […] Thereafter, the cells were suspended by the addition of each of the 4 humanized hG019 antibodies (clone Nos: H01L02, H02L02, H02L03 and H04L02), which had been prepared in Example 5)-5-3, or the anti-CDH6 antibody NOV0712, which had been prepared in Reference Example 1, or human IgG1 (Calbiochem) as a negative control. The cells were left standing at 4° C. for 1 hour. The cells were washed twice with PBS supplemented with 5% FBS, and then suspended by the addition of APC-anti-human IgG goat F(ab′)2 (Jackson ImmunoResearch Laboratories, Inc.) that had been 500-fold diluted with PBS supplemented with 5% FBS. The cells were left standing at 4° C. for 1 hour. The cells were washed twice with PBS supplemented with 5% FBS, followed by detection using a flow cytometer (Canto II; BD Biosciences). The data was analyzed using FlowJo (Tree Star, Inc.). In the histograms of FIGS. 7-1 to 7-6, the abscissa depicts APC fluorescence intensity indicating the amount of the antibody bound, and the ordinate depicts cell count. […] Fluorescence intensity is enhanced when the antibody binds to full-length hCDH6 or each EC domain deletion mutant on cell surface. The human IgG1 control binds to none of the transfected cells.

Binder	binding result (mouse CDH6 (on cells))	binding result [1]
H02L02 antibody (antibody, human IgG1, kappa, V domains shown, Humanized IgG1/kappa (hH02 + hL02); also called humanized hG019 antibody H02L02) VH: EVQLVQSGAEVKKPGASVKVSCKASGYTFTRNFMHWVRQAPGQGLEWMGWIYPGDGETEYNQKFQGRVTITADRSTSTAYMELSSLRSEDTAVYFCARGVYGGFAGGYFDFWGQGTLVTVSS VL: DIQMTQSPSSLSASVGDRVTITCKASQNIYKNLAWYQQKPGKAPKLLIYDANTLQTGVPSRFSGSGSGSDFTLTISSLQPEDFATYFCQQYYSGWAFGQGTKVEIKR	no binding (tested: about 4 nM)	no binding (tested: not given (single concentration))
H02L03 antibody (antibody, human IgG1, kappa, V domains shown, Humanized IgG1/kappa (hH02 + hL03); also called humanized hG019 antibody H02L03) VH: EVQLVQSGAEVKKPGASVKVSCKASGYTFTRNFMHWVRQAPGQGLEWMGWIYPGDGETEYNQKFQGRVTITADRSTSTAYMELSSLRSEDTAVYFCARGVYGGFAGGYFDFWGQGTLVTVSS VL: DIQMTQSPSSLSASVGDRVTITCKASQNIYKNLAWYQQKLGEGPKLLIYDANTLQTGVPSRFSGSGSGTDFTLTISSLQPEDFATYYCQQYYSGWAFGQGTKVEIKR	no binding (tested: about 4 nM)	no binding (tested: not given (single concentration))

Now from value to binder, other results behind:

binding result (mouse CDH6 (on cells))	Binder	binding result [1]
no binding (tested: about 4 nM)	H04L02 antibody (antibody, human IgG1, kappa, V domains shown, Humanized IgG1/kappa (hH04 + hL02); also called humanized hG019 antibody H04L02) VH: QVQLVQSGAEVKKPGASVKVSCKASGYTFTRNFMHWIRQAPGQGLEWMGWIYPGDGETEYAQKFQGRVTLTADRSTSTAYMELSSLRSEDTAVYYCARGVYGGFAGGYFDFWGQGTLVTVSS VL: DIQMTQSPSSLSASVGDRVTITCKASQNIYKNLAWYQQKPGKAPKLLIYDANTLQTGVPSRFSGSGSGSDFTLTISSLQPEDFATYFCQQYYSGWAFGQGTKVEIKR	no binding (tested: not given (single concentration))
no binding (tested: about 4 nM)	H01L02 antibody (antibody, human IgG1, kappa, V domains shown, Humanized IgG1/kappa (hH01 + hL02); also called humanized hG019 antibody H01L02; labeled H01L02) VH: EVQLVQSGAEVKKPGASVKVSCKASGYTFTRNFMHWVRQAPGQGLEWMGWIYPGDGETEYAQKFQGRVTITADTSTSTAYMELSSLRSEDTAVYYCARGVYGGFAGGYFDFWGQGTLVTVSS VL: DIQMTQSPSSLSASVGDRVTITCKASQNIYKNLAWYQQKPGKAPKLLIYDANTLQTGVPSRFSGSGSGSDFTLTISSLQPEDFATYFCQQYYSGWAFGQGTKVEIKR	no binding (tested: not given (single concentration))
